As a reminder, the Kd is the concentration at which binding is half-saturated. Read a low Kd as higher affinity.

This data set deals with Rho WT (Escherichia coli) (UniProt P0AG30). The experiment in a line: EMSA. To be noted: 4 C, 1 mM ATP, 5 mM Mg2+, 25 mM Tris-Cl pH 8.0, 50 mM KCl, 5 mM MgCl2, 1 mM DTT, 37 C (or 4 C), 15 min, 0.8% agarose 0.5x TBE, 5 nM DNA. Background: In EMSA bound probe runs differently from free probe, usually more slowly.
Rho WT (Escherichia coli), sequence (P0AG30 whole entry): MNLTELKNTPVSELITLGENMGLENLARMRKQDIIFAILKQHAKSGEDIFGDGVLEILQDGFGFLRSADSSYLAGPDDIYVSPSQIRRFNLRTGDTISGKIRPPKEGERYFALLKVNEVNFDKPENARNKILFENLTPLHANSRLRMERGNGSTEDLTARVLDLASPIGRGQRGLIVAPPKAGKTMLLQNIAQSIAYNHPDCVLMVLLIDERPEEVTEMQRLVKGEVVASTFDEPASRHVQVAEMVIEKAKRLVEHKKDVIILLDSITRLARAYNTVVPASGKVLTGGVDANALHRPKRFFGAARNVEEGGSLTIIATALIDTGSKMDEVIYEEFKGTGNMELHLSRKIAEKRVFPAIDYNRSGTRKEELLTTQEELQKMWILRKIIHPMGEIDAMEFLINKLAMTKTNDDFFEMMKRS

For the substance 3.5 kb linear dsDNA, the Kd was determined as 12 nM.
